Assay results from the DeepSol protein solubility set.

assay: soluble on expression in E. coli; label from the status in PepcDB or PDB records

Row | Sequence | soluble on expression in E. coli
1 | AQYKDDPILKAATIVSAPLDLAACANRIEQGFSKVYRRYLLSSLKRNALQKHHLLHGELALSYNSIKRVTRLYEFDDLITAPLHGFKDAQDYYDQCSGLSKLLQITLPTLIIHAKDDPFMTEEVIPKFVLPDNIDYRLFEHGGHVGFLTGT | not soluble
2 | MSLDLQLYLSNLANQIDRETGIGDVPLVILLDDLSEAGSISELVNGALTCKYHKPYIIGTTNQPVKMTPNHGLHLSFRRMLTFSNNVEPANGFLVRYLRRKLVESDSDINANKEELLRVLDWVPKLWYHLHTFLEKHSTSDFLIGGPCFFLSCPIGIEDFRTWFIDLWNNSIIPYLQEGAKDGIKVHGQKAAWEDPVEWVRDTLPWPSAQQDDSTPSSLDSDPLMAMLLKLQEAANYIESPDRETILDPNLQATLEGHHHHHH | soluble
3 | MIKNILILSSNNTGHGHKSITESLLEQFSHYPDVNVHVIDGFTLAGNFGLRIGKLYGSVTRNAKELWKLVWELSLKKPSLLNDFTEVAIKDNFLKLICNIKPDLILSVHPNFNGSVLNILEDYNIKVPFVTLLADIVSITPLWADPRADYIICPSKESKFKCLEFGVSESKLIETGFPVRQKFLKHLEKNGENNTQNIKKYTGDRPLECLIMSGGEGSGNMSRIASILLKNFNCRVKIVTGRNRLLKRRLERTIGERFGDRVEIYGFTENIQDLMLSSDIAFTRGSPNVMMEAVACNVPLIITGNLPGQEEGNPAYMQKYNLGVVCKDVRKLRHTVNELLENNGEKLNRIKQSQKEFLNPNVAKEIVSFLLSIDKQEEPCFPEDLFSGDFPRFWELHKRISMSHNKKIILKRHKKIGTKQK | soluble
4 | MAHHHHHHMNCKNMDTSYEIINYLTKDELDIDLSCMDKKERYKIWKRLPKCELHCHLDVCFSVDFFLNVIRKYNIQPNMSDEEIIDYYLFSKPGKSLDEFVEKALRLTDIYIDYTVVEDLAKHAVFNKYKEGVVLMEFRYSPSFMSFKHNLDKDLIHEAIVKGLNEAVALLEYKIQVGLLCTGDGGLSHERMKEAAEFCIKHKKDFVGYDHAGHEVDLKPFKDIFDNIREEGISLSVHAGEDVSIPNLNSLYTAINLLHVKRIGHGIRVSESQELIDLVKEKDILLEVCPISNVLLNNVKSMDTHPIRMLYDAGVKVSVNSDDPGMFLTNITDNYEELYTHLNFTLADFMKMNLWAVQKSFVDPDIKNKIISKYF | soluble
5 | MSIRDWPEAERPREKLLEQGAAALSDAELLAIFLRTGVTGCSAVELSRRLLSEFGGLRALLEADLASFCGHLGLGVAKYAQLQAVLEMGRRHLAERLRRDSILESPQAVRDYLKARLRHEQHEVFACLFLDTRHRVLSFEVLFQGSIDGASVYPRQVVKRTLAHNAAALILTHNHPSGDARPSLADRQLTARLKEALALIDVRVLDHFIIGDGEPLSLAEYGWL | not soluble
6 | MSVSFMELGSADSAEAAANKVAHHVEQMMETSDFFDRLTQHGTTPVSGLGEKFYVKGAPEFVSTRRIPIPGELQMQMSNIHSEFSMGFFTQISRVWVVIDNNLYMWNYETNDDLAFFDSSDAAILKVSLVNIKPGVFEPEIQYGLVVGTISDICLYPVFDFVENGASSISIDSKRCFKIALDGATVNDISYTSNGRVFYTADDQLFEFVYEKQNGWFGSTNHKCRGVNQTASILGTLISLPFFGSSKEPLDQITIDKSRNIMYLLGRAGTVSVWDLGADGAACAKFLSVPISKIAHEAHILTQFGHDETSFHSITSIKALEASQSAALNLVATTAKGVRLYFSVSTGPQSTMAMFNNSGTPNERNRPQTSVRPQCLRVAHVRFAPGVTPASIYGDGPNGVSVVYADECTRL | not soluble
7 | AARLPVAPRHLPTLEKFRAEQPTVQGTSTPTISANAALLIGSLLQSEKLPFEVMAARLSPERYALQQFHGSDLQQMLGRFAEPGHLPGKAETEQLIKGFARSLADQLEHFQLMHDATAEAFGPGGLRDRNTLAVSQAALGEYAGRASKSIEAGLNHSLAVLDERIAALDSQLEGATEDSRPVLLMDRQALETARAMLSDLHVDFCKSPEAKRLSAVAAHTQMDALIDKLNVDRSSVGGWKGIGPIVAAAVPQFMVSMLHLGYIRTATSDAMKDAVPEKSADASMKRALAVGLTAGVAHEGVTNLLKPMVQAGFQKAGLNERLNMVPLKGIDTDSVIPDPFELKNDNGALVRKTPEEAAEDKAFVASERAVLNQKKVQVSSTHPLGEMIPYGAFGGGQAVRQMLNDFNLLNGQTLSARAVTSGIAGAISATTQTIAQLNSTYVDPRGRKIPVFTPDRANADLGKDLAKGLDLREPAVRTAFYSKAVSGVQSAALNGALPSVAVQPQGASGTLSAGNIMRNMALAATGSVSYLSTLYANQSVTAEAKALKEAGMGGATPMVARTETALSNIRHPDRASLPHTFQPDTLGGVPRAVENAYHMARGALQLPTQVVVDTVRVVEDGVASGVSSLRDAHKPAET | not soluble
8 | MAHHHHHHMKINLSFNKNKENKNRNKNGDTDIDNDTRNNKSYKENNPMTRNKIETIFSMSDDEETINYENTHNKIIQQKKENQLNDKIKEYIKEHEEPALTTHEKKEDKKERIDEKNNKKKIQYLGYKSNELTKLNNPKTDDSYDYPFEEKEIYDNLDEKERKKKTIEHNDKDGHEYYKKDHKNHKKYTRSHENDNEVNAYNKDCDVRNKTIDKKTYMKKYDKNIQDYEKKKKKSENSDDDVNRSYLCIDDIFKKKENIDGKKKSKYMEALINSAKRRELEKEFLIQKKQKIDTEKEEKVFVTSAYKKKLMDRELIKKDMDLEVEEKKVDKSSNYNLNLFLKNINAPSNYNRYNRR | soluble
9 | MNYSACTSILVGPQATMDGSVLIGRNEDAKAAWPKHFIVHPATTVATPPQFVSTDNGFTMPLPTQAAKYTATPEWTDKYGLFEEDGINEYGVAMSATESTYSNERVLGADPLVKDGLGEEAMVTVVLPYVKTAREGVARLGQLIEQYGTNESNGILFADQQEAWYLETGAGHYWVAQRIPANAYAVVANQMAIQAVDFADADNFMFAKNLQAFVTDNHLNPHPDRFIWREIFGTQDQSDLYYNTPRVWYGQKRFTPQVSQEPQSFDLPFIQYADRLLSVGDAQQYLSSHFEETPYDPVGSGTAEQKHRFRPVSLAKTQESHVLQLRPNMTPGLAGIQWLAMGVGAQSVYVPFYAGIDSTPEAYHLGTETYDSKSAYWTYKLVSVLLDAHYHTALPTVSETQKALRIAFKQAVQETDRGAQTLSGTELSRYLTQRSNEVAELGLKRYRELAATLITRATDLGPLNYHQDLNLLEHHHHHH | not soluble
10 | MSRIVAIDYGRKRTGIAVSDTLQLIANGLTTVPTHELLNFIGGYVAKEPVERIIIGLPKQMNNEASENMKNIEPFVRSLKKRFPELPVEYVDERFTSVLAHRTMLEAGLKKKDRQNKALVDEISATIILQTYLESKRF | not soluble
11 | MDSADPQLNRFLQQLQAETQRQKFTEQVHTLTGRCWDVCFADYRPPSKMDGKTQTCIQNCVNRMIDASNFMVEHLSKMNGGHV | not soluble
12 | MNGGCDLWIGCARWLRDMKVLTTDKNGTMLEFASVLRDGILLCRLANTLVPNGIDQKKIMRTNQPSPFLCCNNINYFAMFCKTYFNLEDADLFTAEDLYYMNGFQKVLKTLSFLSHTKESLSRGVDPFPDTDNNQEGTSNGSEFEDDVEIYQSLHDNIENVDPNRTIYGPITSADPEEQQSEQLYDRIVTNRKPSMNENDLQNTPTLKRNRCIRELYDTEKNYVAQALVTIIKTFYEPLKGIIPTSDYNIIFGNIEEINVLHTALLADLEYPVKVALGLSDATPPRPISLNECVPQTIGEVFIKYRDQFLAYGKYCSNLPDSRKLSNELLKTNEFISRNINELTAQGNCKFGMNDLLCVPFQRLTKYPLLLKELQKKTDLASPDRKSLEEAVEVMEDVCNYINEESRDTNAIKVIDEIEQSITDLSMPLNVKLHDYGRVNLDGEVKMAESTLTQAGKPKQRYIFLFDKVIVVCKAANKVMAAKTTGASARTNTFTYKNAYVMSELTIDKNASLDVKSGGTITRRTQYVIIMTRDRNENNEITQLTFYFKNEATRNNWMTALLLSKSNVSPTDYLRDTNHKVAFHSFRVDVKNPATCDVCDKLMKGLQYQGYKCEFHEGDIVVANSNSTPSDLSYLQFAKGDRIEVIKMQGHNRFTGCLINNRNRTGLVHLDHVSQSRTTSMIGLSPIDSPAGSIAPRVVRNESTVLPNKLLSDGSSRSLSGPHGSRSSRNSSSSTINGSMDSVPRQQDYVNTEISEFLWYMGEMERAKAESTLKGTPNGTFLVRYSKNRKQTAISLSYKNDVKHMIIEQNSDGKVYLDEDYIFNSTVELVQYYRSNNLIEIFAALDTCLKNPYSQCKVFKAVHDYDAPSPNNEGKFLSFKTGDIVVLLDTVGEDRGWWKGQVNNKSGFFPLSYVKPYDPATEGSSSPVTPTSSSS | not soluble
13 | MSLNVTVHGVPVGSLTREEARAKIESHFAPFLAQPVMLTYSGRTWTPTLAELGAELAIDEAVDKAVAVGRGHDLFTNLQQIGAVWQRGLELPLHLSIDQDALQRYLLDRVAEVERPAVDARLVLHGTTVRVEPSAFGRQVLVNDTLHEIVAALQDLNPDTIALRTRTLEPALRDDAAIVAQDQIAALLAGPITLLIDDRPFVWSLDELARMVRVERIPDPAGDRLVVSIDHELVRARIREIGDATEVKGTYPRLNWNDGRLEIFQEGKPGRRIDEDQVFAAVLDALTKPAEQRTVTVAFREIPPPITAANLDQLGITTLIGVGRSDFTGSAAYRVTNIQAGMRLLHGVLIAPGEEFSFNQTIGRIDRSNGFVEGYAIIQNRTQLEWGGGICQDSTTMFRAAFWAGLPITERWGHSFYISWYDRYAFGPYGDGPGMDATIFTGGPDLKFLNDTGGWLLIQTLVDTHRHLAEVRLYGPDTGRKVLLEGPIITNRTEGHHHHHH | soluble
14 | MARPKTQSERMIILERIIGLVKEQGRITTNDVVAIFGVHRTTAEKYLRIALERGGFIRHGRCGIFRDQRAVIDYDLRRYSSSQVTGFSALPVLEKSPVMQVYGASKMSINKGGAQ | not soluble
15 | GPVPTPPDNIQVQENFNISRIYGKWYNLAIGSTCPWLKKIMDRMTVSTLVLGEGATEAEISMTSTRWRKGVCEETSGAYEKTDTDGKFLYHKSKWNITMESYVVHTNYDEYAIFLTKKFSRHHGPTITAKLYGRAPQLRETLLQDFRVVAQGVGIPEDSIFTMADRGECVPGEQEPEPILIPRV | soluble
16 | MIEKDVVQILKAVSEFYPGRFQPDDLKGTVKAWHRVLAEYELEEIMNNLTDYAKVNKFPPTVSDLLKAQSEQRDRFIPSYEETQRILKEQAEAEEAARNDPDLQAAQEENMRKIREMLGINRGGAR | soluble
17 | MAWLNPFWSSPKAYVRPPKRGLAPELWASRIPFTHLENFYEVFRALWENRDNLPYAWRILKDGVCDGCALGTSGLEDWTLHGVHLCNVRLRLLSLNTLPPLDPKVLKDVEALKGRKSRELRRLGRLPYPMLRRKGERGFRRVSWDEAMGLATEYLRRHLPEGAFFYLTSRGVPNETYYVVQKAVRALGCNHVDNAARICHSPSTVVLKEALGVAATTCSYTDLIGTDLVVFLGSNVANNQPVMMKYLYHAKKAGTKVAVVNPYREPGMERYFVPSDLESALFGTRIADRFFQILPGGDIAFLHGAAKWMLEEGWVDPGFIRAHTAGFEAYKALLEAIPFAELEKAAGVSREEMRAFAEMVGRAERAVFVWGMGITQHTHGEDNVRAIVNLALLKGFVGREGCGLMPIRGHSGVQGGAEMGAYATAFPGGLPVNPENARRLAELWGFPVPDRPGLTTPEALDRALEGRLGVLWAIGGDFREVMPDPEAVEEALRRVPLRVHQDIVLSSQMLLEPGECVLLLPATTRYEVPGGVTETSTERRVIFSPEIPGPRPPEARPEWEVFQELVHRLRPELKDRFRFASTAEIREEIARVIPLYEGIQRFKAKGDQFQYGGRRLCEGWRFPTPDGKAHFRPVPLPQKEVPEGAFRVVTRRGKQFNSIVHEDQDPLTGAFRDAVYMNPKDAARLGLKPGDPVVLENAFGRYAGRVYLAEVKEGTLEVHWPEGNVLVDPKARSPLAHIPAYKEILAHLRRGEAEAPSPLRP | soluble
